Type in all cases: cell-based, human
The test system of experiment [1] is Ewing's Sarcoma cell line Al-8. The experiment can be described thus: Colony formation in semi-solid agar cultures, Al-8 cells. The settings on record: Al-8, 1,000 cells; stimulus 100 ng; mean of duplicate colony counts, day 18. The method, then: (§1) Tumour cells obtained from biopsy and bone marrow specimens from patients with Ewing's Sarcoma were used in these studies. Approval for this project has been obtained from the Ethics Committee of the Royal Children's Hospital.
(§2) Single cell suspensions of tumour cells were obtained by mechanical disruption with an 18G or 21G needle or by pipetting, followed by incubation with dispase II (Boehringer) at a concentration of 1.2 units per ml for 10 minutes at 37° C. Prior to the addition to agar-medium the cells were vortexed gently to prevent clumping.
(§3) Clonal cell lines were grown in Iscove's Modified Dulbecco's Medium (IMDM) supplemented with 10% v/v foetal calf serum (FCS; CSL Limited, Melbourne, Australia) and were passaged either weekly or twice weekly. The characteristics of the Ewing Sarcoma cell lines used herein as described below:
(§4) Cell lines derived from the above primary cell lines (Al and Cu) are identified by an Arabic numeral (e.g. Al-1, Al-5, Al-8 or Cu-1).
(§5) The tumour cells were immobilised in 0.3% w/v agar containing Iscove's Modified Dulbecco's Medium (IMDM) and 10% v/v FCS. […] Cultures were scored for the presence of colonies (>40 cells) or clusters (<40 cells). The number of cells plated per culture ranged from 500 to 10,000 per ml. Colonies were counted on an Olympus dissecting microscope. […]

For experiment [2], the system named is Ewing's Sarcoma cell line Al (uncloned). Nature of the experiment: Colony formation in semi-solid agar cultures, Al (uncloned) cells. The settings on record: Al(uncloned), 5,000 cells; stimulus 100 ng; mean of duplicate colony counts, day 18. The protocol:
as §1, §2, §3
The tumour cells were immobilised in 0.3% w/v agar containing Iscove's Modified Dulbecco's Medium (IMDM) and 10% v/v FCS. […] Cultures were scored for the presence of colonies (>40 cells) or clusters (<40 cells). The number of cells plated per culture ranged from 500 to 10,000 per ml. Colonies were counted on an Olympus dissecting microscope.
IL-1, IL-3, IL-4, IL-6, M-CSF, G-CSF, GM-CSF, Stem Cell Factor (SCF), TNFα, TGFα, TGFβ, EGF, aFGF, bFGF, NGF, IGF I, IGF II, PDGF and IFN-γ. […]

Experiment [3] deals with Ewing's Sarcoma cell line Cu-1. The experiment can be described thus: Colony formation in semi-solid agar cultures, Cu-1 cells. The settings on record: Cu-1, 10,000 cells; stimulus 100 ng; mean of duplicate colony counts, day 18. The method, then: as §1, §2, §3, §4, §5
Experiment [4] relates to Ewing's Sarcoma cell line Al-1. The experiment can be described thus: Colony formation in semi-solid agar cultures, Al-1 cells. The conditions noted are these: stimulus 100 ng, mean of duplicate colony counts, day 18. The protocol:
as §1, §2, §3, §4, §5

B1: EGF: commercially available growth factor (protein, UniProt P01133 23-1207, looked up)
Pro-epidermal growth factor: PQHWSCPEGTLAGNGNSTCVGPAPFLIFSHGNSIFRIDTEGTNYEQLVVDAGVSVIMDFHYNEKRIYWVDLERQLLQRVFLNGSRQERVCNIEKNVSGMAINWINEEVIWSNQQEGIITVTDMKGNNSHILLSALKYPANVAVDPVERFIFWSSEVAGSLYRADLDGVGVKALLETSEKITAVSLDVLDKRLFWIQYNREGSNSLICSCDYDGGSVHISKHPTQHNLFAMSLFGDRIFYSTWKMKTIWIANKHTGKDMVRINLHSSFVPLGELKVVHPLAQPKAEDDTWEPEQKLCKLRKGNCSSTVCGQDLQSHLCMCAEGYALSRDRKYCEDVNECAFWNHGCTLGCKNTPGSYYCTCPVGFVLLPDGKRCHQLVSCPRNVSECSHDCVLTSEGPLCFCPEGSVLERDGKTCSGCSSPDNGGCSQLCVPLSPVSWECDCFPGYDLQLDEKSCAASGPQPFLLFANSQDIRHMHFDGTDYGTLLSQQMGMVYALDHDPVENKIYFAHTALKWIERANMDGSQRERLIEEGVDVPEGLAVDWIGRRFYWTDRGKSLIGRSDLNGKRSKIITKENISQPRGIAVHPMAKRLFWTDTGINPRIESSSLQGLGRLVIASSDLIWPSGITIDFLTDKLYWCDAKQSVIEMANLDGSKRRRLTQNDVGHPFAVAVFEDYVWFSDWAMPSVMRVNKRTGKDRVRLQGSMLKPSSLVVVHPLAKPGADPCLYQNGGCEHICKKRLGTAWCSCREGFMKASDGKTCLALDGHQLLAGGEVDLKNQVTPLDILSKTRVSEDNITESQHMLVAEIMVSDQDDCAPVGCSMYARCISEGEDATCQCLKGFAGDGKLCSDIDECEMGVPVCPPASSKCINTEGGYVCRCSEGYQGDGIHCLDIDECQLGEHSCGENASCTNTEGGYTCMCAGRLSEPGLICPDSTPPPHLREDDHHYSVRNSDSECPLSHDGYCLHDGVCMYIEALDKYACNCVVGYIGERCQYRDLKWWELRHAGHGQQQKVIVVAVCVVVLVMLLLLSLWGAHYYRTQKLLSKNPKNPYEESSRDVRSRRPADTEDGMSSCPQPWFVVIKEHQDLKNGGQPVAGEDGQAADGSMQPTSWRQEPQLCGMGTEQGCWIPVSSDKGSCPQVMERSFHMPSYGTQTLEGGVEKPHSLLSANPLWQQRALDPPHQMELTQ
modifications: Pro-epidermal growth factor
As to B1, the Colonies/Cultures in experiment [1] is 68; in experiment [2] it was 258; in experiment [3], 430; in experiment [4] (Al-1, 1,000 cells) it was 41; in experiment [4] (Al-1, 10,000 cells), 685.

(Values after US5599789A, “Method for the treatment of tumours and sarcomas” (Amrad Corporation Limited, priority 1991, dated 1997).)
